4 sequences from the supplement of paper PMC5998384 can be followed below.

Series [1] has as its system HeLa Kyoto. As to the kind of experiment: solubility in G1/S (NP-40 vs SDS abundance) (log2 ratio); higher = more soluble. The settings on record: cell cycle stage: G1/S.
The subject of series [2] is HeLa Kyoto. The series is described as follows: melting temperature (median over replicates), in situ; higher = more thermally stable.
Series [3] relates to HeLa Kyoto. The series is described as follows: solubility change mitosis vs G1/S (difference of NP-40 vs SDS log2 ratios) (log2 ratio difference); higher = more soluble in mitosis.
Series [4] deals with HeLa Kyoto. As to the kind of experiment: thermal stability score vs G1/S (z-score of summed log2 fold changes over temperatures); higher = more thermally stable than in G1/S.
The mark [5] stands for this setting: cell cycle stage: early G1 (4.5 h after nocodazole release).
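Wherever melting temperature (median over replicates), in situ is given: HeLa Kyoto cells synchronized by double thymidine or nocodazole block, proteins quantified by TMT10plex mass spectrometry, three independent biological replicates.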
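Wherever solubility change mitosis vs G1/S (difference of NP-40 vs SDS log2 ratios) is given: synchronized HeLa Kyoto cells (double thymidine block for G1/S, nocodazole release for mitosis), protein amounts in NP-40 versus SDS lysates quantified by mass spectrometry, three biological replicates.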
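Wherever solubility in G1/S (NP-40 vs SDS abundance) is given: HeLa Kyoto cells arrested at G1/S by double thymidine block, proteins quantified by TMT10plex mass spectrometry in mild NP-40 versus SDS extracts, three biological replicates.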
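Wherever thermal stability score vs G1/S (z-score of summed log2 fold changes over temperatures) is given: synchronized HeLa Kyoto cells, proteins quantified by TMT10plex mass spectrometry, three biological replicates, mitosis taken 0.5 h after nocodazole release, G1/S directly after double thymidine block.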

On to “MASGRRAPRTGLLELRAGAGSGAGGERWQRVLLSLAEDVLTVSPADGDPGPEPGAPREQEPAQLNGAAEPGAGPPQLPEALLLQRRRVTVRKADAGGLGISIKGGRENKMPILISKIFKGLAADQTEALFVGDAILSVNGEDLSSATHDEAVQVLKKTGKEVVLEVKYMKDVSPYFKNSTGGTSVGWDSPPASPLQRQPSSPGPTPRNFSEAKHMSLKMAYVSKRCTPNDPEPRYLEICSADGQDTLFLRAKDEASARSWATAIQAQVNTLTPRVKDELQALLAATSTAGSQDIKQIGWLTEQLPSGGTAPTLALLTEKELLLYLSLPETREALSRPARTAPLIATRLVHSGPSKGSVPYDAELSFALRTGTRHGVDTHLFSVESPQELAAWTRQLVDGCHRAAEGVQEVSTACTWNGRPCSLSVHIDKGFTLWAAEPGAARAVLLRQPFEKLQMSSDDGASLLFLDFGGAEGEIQLDLHSCPKTIVFIIHSFLSAKVTRLGLLA [SNTA1]”, for which the “solubility in G1/S (log2)” value in the series with HeLa Kyoto [1] came to 0.0927. The melting temperature is 51.2 °C in the series with HeLa Kyoto [2] (cell cycle stage: G1/S) and 49.2 °C with HeLa Kyoto [2] (cell cycle stage: mitosis). Further, in the series on HeLa Kyoto [3], the “solubility change mitosis (log2)” value was -0.136. The thermal stability score is -0.161 in the series with HeLa Kyoto [4] (setting [5]) and 0.249 with HeLa Kyoto [4] (cell cycle stage: mitosis).
As for “MASGSGDSVTRRSVASQFFTQEEGPGIDGMTTSERVVDLLNQAALITNDSKITVLKQVQELIINKDPTLLDNFLDEIIAFQADKSIEVRKFVIGFIEEACKRDIELLLKLIANLNMLLRDENVNVVKKAILTMTQLYKVALQWMVKSRVISELQEACWDMVSAMAGDIILLLDSDNDGIRTHAIKFVEGLIVTLSPRMADSEIPRRQEHDISLDRIPRDHPYIQYNVLWEEGKAALEQLLKFMVHPAISSINLTTALGSLANIARQRPMFMSEVIQAYETLHANLPPTLAKSQVSSVRKNLKLHLLSVLKHPASLEFQAQITTLLVDLGTPQAEIARNMPSSKDTRKRPRDDSDSTLKKMKLEPNLGEDDEDKDLEPGPSGTSKASAQISGQSDTDITAEFLQPLLTPDNVANLVLISMVYLPEAMPASFQAIYTPVESAGTEAQIKHLARLMATQMTAAGLGPGVEQTKQCKEEPKEEKVVKTESVLIKRRLSAQGQAISVVGSLSSMSPLEEEAPQAKRRPEPIIPVTQPRLAGAGGRKKIFRLSDVLKPLTDAQVEAMKLGAVKRILRAEKAVACSGAAQVRIKILASLVTQFNSGLKAEVLSFILEDVRARLDLAFAWLYQEYNAYLAAGASGSLDKYEDCLIRLLSGLQEKPDQKDGIFTKVVLEAPLITESALEVVRKYCEDESRTYLGMSTLRDLIFKRPSRQFQYLHVLLDLSSHEKDKVRSQALLFIKRMYEKEQLREYVEKFALNYLQLLVHPNPPSVLFGADKDTEVAAPWTEETVKQCLYLYLALLPQNHKLIHELAAVYTEAIADIKRTVLRVIEQPIRGMGMNSPELLLLVENCPKGAETLVTRCLHSLTDKVPPSPELVKRVRDLYHKRLPDVRFLIPVLNGLEKKEVIQALPKLIKLNPIVVKEVFNRLLGTQHGEGNSALSPLNPGELLIALHNIDSVKCDMKSIIKATNLCFAERNVYTSEVLAVVMQQLMEQSPLPMLLMRTVIQSLTMYPRLGGFVMNILSRLIMKQVWKYPKVWEGFIKCCQRTKPQSFQVILQLPPQQLGAVFDKCPELREPLLAHVRSFTPHQQAHIPNSIMTILEASGKQEPEAKEAPAGPLEEDDLEPLTLAPAPAPRPPQDLIGLRLAQEKALKRQLEEEQKLKPGGVGAPSSSSPSPSPSARPGPPPSEEAMDFREEGPECETPGIFISMDDDSGLTEAALLDSSLEGPLPKETAAGGLTLKEERSPQTLAPVGEDAMKTPSPAAEDAREPEAKGNS [SYMPK]”, the “solubility in G1/S (log2)” value in the series on HeLa Kyoto [1] was determined as 0.0291. Besides, the melting temperature with HeLa Kyoto [2] (cell cycle stage: G1/S) was 48.1 °C; with HeLa Kyoto [2] (cell cycle stage: mitosis), 49.1 °C. In addition, the “solubility change mitosis (log2)” value in the series on HeLa Kyoto [3] was -0.0648. In addition, the thermal stability score turned out to be 1.75 with HeLa Kyoto [4] (setting [5]) and 4.2 in the series with HeLa Kyoto [4] (cell cycle stage: mitosis).
Consider “MASGTTTTAVKIGIIGGTGLDDPEILEGRTEKYVDTPFGKPSDALILGKIKNVDCVLLARHGRQHTIMPSKVNYQANIWALKEEGCTHVIVTTACGSLREEIQPGDIVIIDQFIDRTTMRPQSFYDGSHSCARGVCHIPMAEPFCPKTREVLIETAKKLGLRCHSKGTMVTIEGPRFSSRAESFMFRTWGADVINMTTVPEVVLAKEAGICYASIAMATDYDCWKEHEEAVSVDRVLKTLKENANKAKSLLLTTIPQIGSTEWSETLHNLKNMAQFSVLLPRH [MTAP]”, for which the “solubility in G1/S (log2)” value in the series on HeLa Kyoto [1] is 0.254. The melting temperature in the series with HeLa Kyoto [2] (cell cycle stage: G1/S) came out at 60 °C; in the series on HeLa Kyoto [2] (cell cycle stage: mitosis) it was 60.5 °C. Also, the “solubility change mitosis (log2)” value with HeLa Kyoto [3] was -0.0344. Besides, the figures for the thermal stability score with HeLa Kyoto [4] (setting [5]) and with HeLa Kyoto [4] (cell cycle stage: mitosis) were -1.8 and -2.68, respectively.
As to “MASILRSPQALQLTLALIKPDAVAHPLILEAVHQQILSNKFLIVRMRELLWRKEDCQRFYREHEGRFFYQRLVEFMASGPIRAYILAHKDAIQLWRTLMGPTRVFRARHVAPDSIRGSFGLTDTRNTTHGSDSVVSASREIAAFFPDFSEQRWYEEEEPQLRCGPVCYSPEGGVHYVAGTGGLGPA [NME6]”, the “solubility in G1/S (log2)” value in the series on HeLa Kyoto [1] is 0.31. Further, the melting temperature worked out at 51.3 °C with HeLa Kyoto [2] (cell cycle stage: G1/S) and 55.2 °C with HeLa Kyoto [2] (cell cycle stage: mitosis). The “solubility change mitosis (log2)” value in the series on HeLa Kyoto [3] came out at 0.636. Moreover, the figures for the thermal stability score in the series with HeLa Kyoto [4] (setting [5]) and in the series with HeLa Kyoto [4] (cell cycle stage: mitosis) were -2.16 and -1.08, respectively.
